Entries after “also recorded” stand apart in the source; their conditions may differ.
Legend:
[1] = tested on: peritoneal carcinomatosis (DHD cells); assay: Adjusting the dose of collagenase as co-adjuvant in rats with carcinomatosis; assay type: in vivo, rat; settings: 10 minutes, 37° C.
Experimental: In this sense, after the inoculation of DHD cells in all the animals, and therefore the induction of solid tumors in the peritoneum (peritoneal carcinomatosis), the optimum dose of collagenase in terms of safety for use thereof as a co-adjuvant for or enhancer of chemotherapy treatment with mitomycin C in various work groups was determined: • Control group: washed only with Ringer's lactate. The mesoderm readily separates and washing is non-hematic. Compact omentum. • Group 1: 370 U/mL of collagenase. Hematic washing liquid, destruction of the omentum and mesoderm. Tumor fragments in the washing liquid. • Group 2: 148 U/mL of collagenase. Slightly hematic washing liquid, readily separable omentum and mesoderm. Solid tumor fragments are observed in the washing liquid. • Group 3: 74 U/mL of collagenase. Non-hematic washing liquid, readily separable omentum and mesoderm. Few implants are observed in the washing liquid but the accessibility of the tumor implants in the mesoderm and omentum is absolute. • Group 4: 37 U/mL of collagenase. Non-hematic washing liquid, readily separable omentum and mesoderm. No tumor implants observed in the washing liquid, but they are seen to be completely exposed in both the mesoderm and omentum.
The surgical procedures during this phase consisted of a first method of peritoneal cancer induction in which DHD cells were injected into the peritoneum and 6-8 weeks were allowed to elapse until the checking for the existence of tumor masses in the peritoneum by means of abdominal palpation, and a second method of treatment in which, after giving the animals inhalation anesthesia, the abdominal cavity was exposed by means of a longitudinal incision of the abdomen, the peritoneal cavity filled with the collagenase solution at the different concentrations to be tested at 37° C.

[2] = tested on: abdominal organs and peritoneum; assay: Survival and necropsy of healthy rats after peritoneal washing (groups A, B); settings: group A, collagenase 37 U/mL; 1 died after surgery due to evisceration
Source text: During this phase, a series of survival experiments were established with various work groups and subgroups to learn about the co-adjuvant or enhancing role of collagenase in the treatment of peritoneal tumors with chemotherapeutic agents such as mitomycin C:
Each group initially consisted of 6 rats (2×3). In the initial design, 3 animals were sacrificed after 15 days and the rest were left until the conditions of the animals required them to be sacrificed (subcutaneous tumor growth >0.5 cm in diameter) or a maximum of 2 months.

[3] = tested on: MMP-1; assay: ELISA for collagenase residues in blood, anti-MMP-1; assay type: in vivo, rat; settings: after treatment and the follow-up period, all animals
Experimental: (§1) The procedure was performed 2 times in the TCQ group, the first time with collagenase and after 2 minutes peritoneal washing with mitomycin C at the different concentrations to be tested was repeated. […] Blood was also collected from all the animals before sacrificing them, the blood was processed within the hour following its extraction to obtain plasma and to analyze, on one hand, the existence of the mutated KRAS oncogene (mutation in codon 12 of exon 1 expressed by DHD cells), and on the other hand the existence of collagenase traces or residues in blood after the peritoneal washes. A digital PCR was used for the KRAS oncogene localization study. For the collagenase trace study, the anonymized samples were sent to Lyposmol laboratories for the performance of specific anti-MMP-1 and anti-MMP-2 ELISAS.

[4] = tested on: MMP-2; assay: ELISA for collagenase residues in blood, anti-MMP-2; assay type: in vivo, rat; settings: after treatment and the follow-up period, all animals
Experimental: as §1

[5] = tested on: peritoneal adhesions (polypropylene mesh); assay: Peritoneal adhesion model group 2 (4 large meshes): adhesion tear test; assay type: in vivo, rat; settings: group 2, blind study, 0.05%; PBS control 325.76
Experimental: About one month later, intervention is performed on 6 additional 6-week old Wistar rats belonging to a second group (Group II). After inhalation anesthesia with Forane, the animal being shaved, and aseptic measures being implemented, laparotomy is performed with the implantation of 4 polypropylene meshes in the abdominal cavity, 2 on each side of the midline. Prior to implantation, the mesh is wetted with pss.
Secondly, experiments were performed on the rats belonging to group 2. The rats in this group were operated on, divided into two groups with 3 rats each, where a first group received 0.05% collagenase and the other placebo (PBS). After that they were subjected to an adhesion tear test, measuring the maximum pressure and the curve at which the adhesion tore. To that end, an adhesion tear measurement system was used which consisted of a high-precision digital pressure gauge that measured the pressure of a closed and rigid system with three outlets. One was a manual pressure pump, the other one was a piston with linear mobility to which clamps for pulling are fitted and which takes pressure away from the pressure gauge. The pressure needed to cause the tear of the adhesions generated in the collagenase group vs. control group was measured with this system.

[6] = tested on: peritoneal tissues; assay: First tests of peritoneal washing with collagenase on mouse (fine-tuning); settings: for necropsy findings: mice
Experimental: Six 5-week old double knock-out female mice (LIPDKO), from which the lipocalin-2 gene (which affects neutrophil recruitment) and the ApoE gene (which makes it more probable for the mice to develop atherosclerosis) have been eliminated, were used. […] Each concentration was injected to 2 mice according to their weight.
Cells obtained from washing which grew in culture dishes as well as the morphology of the peritoneal tissues after washing at different concentrations were analyzed.
Once the enzyme dose was selected, the actuation time was determined in the same manner and on the same model by means of tests from 40, 30, 20, 10, and 5 minutes. Throughout this fine-tuning method, the washing liquid was collected and cultured in a complete medium to analyze the cells obtained; different organs of the animals were also collected at the same time to check for the existence at any time (concentration/time) of any organ damage and to check the condition of the peritoneal tissues.

[7] = tested on: peritoneal carcinomatosis (DHD cells); assay: Phase I fine-tuning of collagenase peritoneal washing on rats with peritoneal carcinomatosis
Experimental: For the development of the “in vivo” model, carcinomatosis was caused in 6 BDIX rats, treatment was proposed after 4 weeks. The treatment consisted of using different concentrations (370 U/mL, 2×148 U/mL, 74 U/mL, 37 U/mL, 0) of collagenase by means of peritoneal washing and it was performed in an open system by means of using a perfusion pump on 3 animals and without using any perfusion pump on 3 other animals (FIG. 3). […] The method for peritoneal washing consisted of, after giving the animals inhalation anesthesia, exposing the abdominal cavity with a longitudinal incision and filling the peritoneal cavity with collagenase diluted to the different concentrations mentioned above. Continuous washing of the peritoneum (only with Ringer's lactate) was then performed; the animals were chosen randomly in each case and treatment lasted for 10 minutes in all the animals.
Washed tissue samples as well as organs were collected for histological studies in all cases (FIG. 4).

Substance: Collagenase
- washing liquid, omentum, mesoderm and tumor implants after washing ([1]; Group 1: 370 U/mL): Hematic washing liquid, destruction of the omentum and mesoderm. Tumor fragments in the washing liquid.
- washing liquid, omentum, mesoderm and tumor implants after washing ([1]; Group 2: 148 U/mL): Slightly hematic washing liquid, readily separable omentum and mesoderm. Solid tumor fragments are observed in the washing liquid.
- washing liquid, omentum, mesoderm and tumor implants after washing ([1]; Group 3: 74 U/mL): Non-hematic washing liquid, readily separable omentum and mesoderm. Few implants are observed in the washing liquid but the accessibility of the tumor implants in the mesoderm and omentum is absolute.
- washing liquid, omentum, mesoderm and tumor implants after washing ([1]; Group 4: 37 U/mL): Non-hematic washing liquid, readily separable omentum and mesoderm. No tumor implants observed in the washing liquid, but they are seen to be completely exposed in both the mesoderm and omentum.
- survival [2]: 4 out of 5
- collagenase residues in blood, MMP-1 ELISA [3]: negative
- collagenase residues in blood, MMP-2 ELISA [4]: negative
- adhesion tear pressure [5]: 188.26 millibar
- clinical observations half an hour after administration ([6]; mice 5 and 6, highest doses of collagenase): lethargic, exhibited signs of pain and a very reduced response to handling; also recorded: the abdominal wall had become detached
- mortality ([6]; mice with the highest doses of collagenase): died within one hour
- necropsy findings ([6]; 17.5 U/mL and 8.75 U/mL (one mouse each line)): somewhat hematic abdominal wall that has experienced the least thinning; also recorded: abdominal wall with a normal appearance and color
- necropsy findings ([6]; 35 U/mL): very thin hematic abdominal wall that ruptures by itself
- necropsy findings ([6]; 87.5 U/mL): hematic, practically transparent abdominal wall that completely comes off the skin and ruptures by itself when touched
- clinical observations half an hour after administration ([6]; one mouse, 35 U/mL): responded well to handling but exhibited signs of pain
- Macroscopic observations ([7]; animal ID 1, 35 U/ml, PCI 13): All rather hematic. Implants
- Macroscopic observations ([7]; animal ID 2, 8.75 U/ml, PCI 10, pump not used): Pump is not used. Implants do
- Macroscopic observations ([7]; animal ID 3, 35 U/ml, PCI 2): Mesoderm readily separates.
- Macroscopic observations ([7]; animal ID 5, 87.5 U/ml, PCI 10): All hematic. Omentum,
- follow-up of the only animal left alive after treatment ([7]; rat, in vivo): showed no impairments or pain
